Article PMC13588620 (eLife, 2026)

Biological target: T1, recombinant SARS-CoV-2 nucleocapsid protein (Severe acute respiratory syndrome …, UniProt P0DTC9)
T1 construct: SARS-CoV-2 nucleocapsid protein; also called NP; N-protein
Experiment: ELISA; peptide competition ELISA: plate coated with 0.1 ug/ml recombinant SARS-CoV-2 NP overnight at 4°C; 40 μl mBG17 pre-incubated 1 h at room temperature with 40 μg (approximately 30 nMol) of a single peptide fragment, then applied to the plate in triplicate; HRP goat anti-mouse detection; percent of no-peptide control
Conditions: both partners purified

B1: mBG17 anti-SARS-CoV-2 nucleocapsid protein mouse monoclonal antibody (recombinant) (antibody, V domains shown)
VH: EVKLEESGGGLVQPGGSMKFSCVASGFTFSDYWMNWVRQSPDKGLEWVAEIRLKSNNYATHYAASVKGRFTISRDDSKSSVYLQMNNLRAEDSGIYYCTRSAMDYWGQGTSVTVSS
VL: DIVMSQSPSSLAVSVGEKITMSCKSSQSLLYTSDQKNYLAWFQQKPGQSPKLLIFWASTRDSGVPDRFTGSGSGTDFTLTISSVKAEDLAVYYCQQFYNYPRTFGGGTKLEI
notes: VH of mBG17; VL of mBG17; also called recombinant mBG17 antibody; source: recombinant antibody produced in 293F cells (as described in Terry et al., 2021)
- binding result: binds
